For one experiment, the target named is YFP-Stim1 (human) (UniProt Q13586). As to the kind of experiment: FRET or BRET. On the technique in general: Bioluminescence resonance energy transfer reports proximity on the nanometre scale.
The target of the next experiment is CFP-Stim1 (human) (UniProt Q13586). As to the kind of experiment: FRET or BRET.

With “CFP-Orai3-L292S (from UniProt Q9BRQ5 1-295) (natural protein)”, the FRET reduction against WT-Orai3 with Stim1 with YFP-Stim1 (human) was 20%. The substance “YFP-Orai3-L285S (from UniProt Q9BRQ5 1-295) (natural protein)” gave an FRET reduction against WT-Orai3 with Stim1 in the experiment with CFP-Stim1 (human) of 35%.

The values above are taken from article PMC3048740.
